Data as given in paper PMC547899.

Molecular target: SMC3-474/702 hinge domain (GAL4:SMC3 fusion in pBIND) (UniProt Q9CW03)
Test: two-hybrid; mammalian two-hybrid (Promega Checkmate) in 293 cells: SMC3-474/702 in pBIND, SMC1-474/663 in pACT, pG5/luc reporter, with Hinderin-V5 expression vector (0.3 or 1 ug/ml) or empty pcDNA3.1; luciferase after 48 h, corrected by Renilla

Sequence of UniProt Q9CW03 (Q9CW03 474-702): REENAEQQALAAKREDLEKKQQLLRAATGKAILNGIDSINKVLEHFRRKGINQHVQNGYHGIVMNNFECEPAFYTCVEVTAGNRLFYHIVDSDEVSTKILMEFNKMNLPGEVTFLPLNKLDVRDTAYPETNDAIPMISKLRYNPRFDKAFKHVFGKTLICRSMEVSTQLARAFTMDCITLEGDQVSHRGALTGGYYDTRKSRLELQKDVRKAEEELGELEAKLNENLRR

SMC1/SMC3 interaction (luciferase activity) in cells overexpressing Hinderin, percent: 34%
Substance: Hinderin-V5 (complete Hinderin coding region with V5 tag) (from UniProt Q86T90 1-577) (natural protein)
